Experimental data published in patent US20210069342A1 (LEGOCHEM BIOSCIENCES, published 2021).

Columns and labels:
[1] = molecular target: T1, human ROR1 expressed on the cell surface (human, UniProt Q01973 30-937); assay: flow cytometry on JeKo-1 cells (MCL), C2E3 IgG, FITC anti-human Fc detection
T1 construct: whole, on cells; also called cell surface-expressed ROR1 antigen; ROR1 on JeKo-1, Mino, CHO-human ROR1, MC38-human ROR1 and other cancer cell lines
Experimental: (§1) FACS analysis (FACSCalibur, BD Biosciences) was used to analyze the binding of the anti-ROR1 antibody of the present invention to ROR1 in the above cell lines.
(§2) Specifically, the respective cell lines were dissociated and washed in PBS, then the numbers of cells were counted and adjusted to 2×10⁵ cells/200 PBS. Then, they were treated with 10 /mL of the antibody of clone name C2E3 of the ROR1 monoclonal antibodies prepared in Embodiment 3, and reacted for 1 hour at 4° C. After the reaction, the cells were washed in PBS, then FITC-marked constant region (Fc) specific antibody (Goat anti-human IgG FITC conjugate, Fc specific, Sigma, F9512, concentration 20 mg/ml) was suspended in 2 /1×10⁵ cells/200 PBS and reacted for 1 hour at 4° C. After reacting, the cells were washed with PBS and analyzed with the FACSCalibur equipment. The negative control was only treated with FITC-marked constant region (Fc) specific antibody. To compare the degree of ROR1 expression among the respective cancer cell lines, the quotient of dividing the shifted readings for the experimental group treated with the ROR1 monoclonal antibody (C2E3) of the present invention by the shifted readings for the control group (MFI Ratio: MFI of anti-ROR1/MFI or 2nd Ab) is indicated.

[2] = molecular target: T1, human ROR1 expressed on the cell surface; assay: flow cytometry on A549 cells (lung cancer), C2E3 IgG, FITC anti-human Fc detection
Experimental: as §1, §2

[3] = molecular target: T1, human ROR1 expressed on the cell surface; assay: flow cytometry on HCT116 cells (colon cancer), C2E3 IgG, FITC anti-human Fc detection
Experimental: as §1, §2

[4] = molecular target: T1, human ROR1 expressed on the cell surface; assay: flow cytometry on HCC1806 cells (breast cancer), C2E3 IgG, FITC anti-human Fc detection
Experimental: as §1, §2

[5] = molecular target: T1, human ROR1 expressed on the cell surface; assay: flow cytometry on MKN-28 cells (gastric cancer), C2E3 IgG, FITC anti-human Fc detection
Experimental: as §1, §2

[6] = molecular target: T1, human ROR1 expressed on the cell surface; assay: flow cytometry on SNU-16 cells (gastric cancer), C2E3 IgG, FITC anti-human Fc detection
Experimental: as §1, §2

[7] = molecular target: T2, recombinant mouse ROR1 protein (Acrobiosystems, RO1-M5221) (mouse, UniProt Q9Z139 30-403); assay: ELISA, wells coated with recombinant mouse ROR1 protein, IgG titrated, HRP anti-Fab detection, OD (450-650nm)
T2 construct: Bought protein; also called mouse ROR1 antigen
T2 sequence (Q9Z139 30-403 limits assumed): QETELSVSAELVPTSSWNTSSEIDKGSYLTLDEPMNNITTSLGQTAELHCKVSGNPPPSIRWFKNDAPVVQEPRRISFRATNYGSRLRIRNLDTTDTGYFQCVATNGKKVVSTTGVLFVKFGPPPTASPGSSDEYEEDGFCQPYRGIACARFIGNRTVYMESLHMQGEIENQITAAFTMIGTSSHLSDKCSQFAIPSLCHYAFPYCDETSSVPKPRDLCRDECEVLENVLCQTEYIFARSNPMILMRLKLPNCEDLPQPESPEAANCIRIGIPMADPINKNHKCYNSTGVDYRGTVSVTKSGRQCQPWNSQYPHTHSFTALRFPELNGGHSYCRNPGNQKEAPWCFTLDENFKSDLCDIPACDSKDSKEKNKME

[8] = molecular target: T1, human ROR1 expressed on the cell surface; assay: flow cytometry on MC38-human ROR1 cells, IgG titrated, FITC anti-human Fc detection, MFI ratio to 2nd Ab alone; log axis whose first tick is printed 0
From the text: For this experiment, using cell lines (FIG. 5 and FIG. 7, respectively) transiently (CHO-human ROR1, CHO-human ROR2, CHO-mouse ROR1) or stably (MC38-human ROR1) transfected with ROR1 gene to achieve artificial over-expression of ROR1 protein, an ROR1-expressing cell line (JeKo-1, Mino) (FIG. 6), a non ROR1-expressing cell line (MCF7) (FIG. 6) and a FACSCalibur (BD Biosciences) device was used to measure the degree to which anti-ROR1 antibody and ROR1 were bound, as follows. […] JeKo-1, Mino, CHO-human ROR1, CHO-mouse ROR1 and MC38-human ROR1 are all cell lines which express human ROR1 or mouse ROR1.
Specifically, after dissociating each cell line and washing in PBS, the number of cells was counted and adjusted to 2×10⁵ cells/200 PBS. Then the respective ROR1 monoclonal antibodies prepared in Embodiment 3 were diluted 5 times from 10 /mL or 10 /mL, then reacted for 1 hour at 4° C. After the reaction, the cells were washed in PBS, then FITC-marked constant region (Fc) specific antibody (Goat anti-human IgG FITC conjugate, Fc specific, Sigma, F9512, concentration 20 mg/ml) was suspended in 2 /1×10⁵ cells/200 PBS and reacted for 1 hour at 4° C. As for identification of the degree of expression of the transiently over-expressed human ROR1, human ROR2 and mouse ROR1, a commercially available FACS analysis antibody (anti-ROR1: R&D Systems, FAB 2000G, anti-ROR2: R&D, FAB20641P) was used. After reacting the cells were washed in PBS and analyzed using a FACSCalibur device. The negative control (2nd Ab) was only treated with FITC-marked constant region (Fc) specific antibody. The shifted readings for the respective experimental groups treated with ROR1 monoclonal antibody were compared against the shifted reading for the control group (MFI Ratio: MFI of anti-ROR1/MFI of 2nd Ab).

T1 sequence (Q01973 30-937): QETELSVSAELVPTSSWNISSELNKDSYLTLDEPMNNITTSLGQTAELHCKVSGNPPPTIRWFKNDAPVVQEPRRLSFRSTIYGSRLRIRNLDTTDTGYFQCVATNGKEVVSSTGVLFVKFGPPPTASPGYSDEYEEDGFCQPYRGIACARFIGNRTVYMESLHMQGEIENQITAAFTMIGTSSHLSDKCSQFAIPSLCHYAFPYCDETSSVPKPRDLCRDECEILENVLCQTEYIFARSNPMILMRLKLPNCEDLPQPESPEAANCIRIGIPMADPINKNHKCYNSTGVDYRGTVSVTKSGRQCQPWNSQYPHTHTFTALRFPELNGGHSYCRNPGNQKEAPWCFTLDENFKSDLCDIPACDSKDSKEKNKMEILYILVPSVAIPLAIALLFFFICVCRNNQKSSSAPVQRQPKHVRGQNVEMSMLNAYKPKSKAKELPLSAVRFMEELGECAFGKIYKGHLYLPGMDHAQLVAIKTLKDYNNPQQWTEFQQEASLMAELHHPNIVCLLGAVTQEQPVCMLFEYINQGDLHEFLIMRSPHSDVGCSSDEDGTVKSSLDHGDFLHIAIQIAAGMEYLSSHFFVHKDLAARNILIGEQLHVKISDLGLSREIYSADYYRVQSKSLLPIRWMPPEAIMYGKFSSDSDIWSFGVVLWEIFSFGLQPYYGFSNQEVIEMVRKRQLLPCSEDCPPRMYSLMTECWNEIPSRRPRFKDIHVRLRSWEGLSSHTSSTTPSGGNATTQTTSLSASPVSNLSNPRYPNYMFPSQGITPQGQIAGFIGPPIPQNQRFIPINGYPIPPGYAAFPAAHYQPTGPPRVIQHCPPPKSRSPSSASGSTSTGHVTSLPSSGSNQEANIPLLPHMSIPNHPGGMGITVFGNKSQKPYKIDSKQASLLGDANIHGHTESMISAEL

Mean Fold Ratio (MFI of anti-ROR1 / MFI of 2nd Ab) [1]: 4 | Mean Fold Ratio (MFI of anti-ROR1 / MFI of 2nd Ab) [2]: 6 | Mean Fold Ratio (MFI of anti-ROR1 / MFI of 2nd Ab) [3]: 18 | Mean Fold Ratio (MFI of anti-ROR1 / MFI of 2nd Ab) [4]: 2.3 | Mean Fold Ratio (MFI of anti-ROR1 / MFI of 2nd Ab) [5]: 4.9 | Mean Fold Ratio (MFI of anti-ROR1 / MFI of 2nd Ab) [6]: 2.4 | EC50 (read off the curve) [7]: ~300 pM | EC50 (read off the curve) [8]: ~100 ng/mL
B1: anti-ROR1 IgG antibody C2E3 (antibody, V domains shown)
VH: EVQLLESGGGLVQPGGSLRLSCAASGFTFSNYAMSWVRQAPGKGLEWVSSISHNSGSTYYADSVKGRFTISRDNSKNTLYLQMNSLRAEDTAVYYCAKFISARKSLGRSYSNGMDVWGQGTLVTVSS
VL: QSVLTQPPSASGTPGQRVTISCTGSSSNIGSNDVTWYQQLPGTAPKLLIYADSKRPSGVPDRFSGSKSGTSASLAISGLRSEDEADYYCGTWDYSLSGYVFGGGTKLTVLG
notes: Full IgG form (human IgG1 constant region, lambda light chain), expressed in CHO-S cells
